We go through two substances from patent publication US20140079706A1.

Where only a bound is given, the exact number is not on record here.

The % inhibition is the drop in the measured response relative to a control, in per cent. Higher therefore signals strong suppression.

Holding throughout (assay): cell-based or functional assay
For assay [1], the target named is human wildtype CSF-1R (wt CSF-1R), full-length, on cells (human) (UniProt P07333).
In assay [2] the target is human mutant CSF-1R L301S Y969F, full-length, on NIH 3T3 cells (human) (UniProt P07333).
Assay [3] concerns the target CSF-1R on cynomolgous monocytes (cynomolgous).

Turning to “Anti CSF-1R SC 2-4A5 (Santa Cruz Biotechnology, US) (antibody)”, in assay [1], the wtCSF-1R IC30 (cell viability, CellTiterGlo, 3D spheroids) was 16.6 µg/mL and the wtCSF-1R IC50 (cell viability, CellTiterGlo, 3D spheroids) was found to be 10 µg/mL. Further, in assay [2], the Mutant CSF-1R IC30 (cell viability, CellTiterGlo, 3D spheroids) came to 2.56 µg/mL and the Mutant CSF-1R IC50 (cell viability, CellTiterGlo, 3D spheroids) was determined as 10 µg/mL. For the same substance, in assay [3], the % inhibition (of survival) = (100% - % survival), cynomolgous monocytes, 5 µg/ml antibody is 69% and the % survival of cynomolgous monocytes at 5 µg/ml antibody (150 ng/ml huCSF-1, CellTiterGlo) was found to be 31%.

“goat polyclonal anti-CSF-1R antibody ab10676 (abcam)” gave a wtCSF-1R IC30 (cell viability, CellTiterGlo, 3D spheroids) in assay [1] of 14.2 µg/mL. In addition, in assay [2], the % inhibition at 20 µg/ml, mutant CSF-1R cells was determined as 0% and the Mutant CSF-1R IC30 (cell viability, CellTiterGlo, 3D spheroids) was over 20 µg/mL.
